Here are results for 11 molecules from patent US10100129B2, “Antibodies against CD73 and uses thereof” (BRISTOL-MYERS SQUIBB COMPANY, priority 2014, dated 2018).

Positions count from the first letter of the chain named. Numbers in names are those of the source.

T1: CD32a-H131 (FcgRIIa-H131) (Homo sapiens, UniProt P12318)
T1 sequence (P12318 34-217 limits assumed): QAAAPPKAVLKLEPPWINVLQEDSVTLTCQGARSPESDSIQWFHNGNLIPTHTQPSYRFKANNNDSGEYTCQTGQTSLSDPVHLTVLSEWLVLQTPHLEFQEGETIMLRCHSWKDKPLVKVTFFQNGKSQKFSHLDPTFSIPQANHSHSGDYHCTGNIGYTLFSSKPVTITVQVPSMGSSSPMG

T2: CD32a-R131 (FcgRIIa-R131) (Homo sapiens, UniProt P12318, H167R)
T2 sequence (P12318 34-217 H167R limits assumed): T1 sequence (P12318 34-217 limits assumed) with H134R

T3: CD32b (FcgRIIb) (Homo sapiens, UniProt P31994)
T3 sequence (P31994 43-310): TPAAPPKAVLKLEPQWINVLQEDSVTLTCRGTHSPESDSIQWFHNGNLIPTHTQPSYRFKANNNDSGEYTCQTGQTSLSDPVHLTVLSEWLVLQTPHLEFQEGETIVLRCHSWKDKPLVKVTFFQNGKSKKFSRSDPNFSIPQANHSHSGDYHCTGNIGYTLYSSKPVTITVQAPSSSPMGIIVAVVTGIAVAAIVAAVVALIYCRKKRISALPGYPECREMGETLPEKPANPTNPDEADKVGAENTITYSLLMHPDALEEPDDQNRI

B1: mAb7-IgG2.3G1-AY-V27 (protein)
constant: ASTKGPSVFPLAPCSRSTSESTAALGCLVKDYFPEPVTVSWNSGALTSGVHTFPAVLQSSGLYSLSSVVTVPSSNFGTQTYTCNVDHKPSNTKVDKTVERKSCVECPPCPAPELLGGPSVFLFPPKPKDTLMISRTPEVTCVVVDVEHEDPEVKFNWYVDGVEVHNAKTKPREEQYNSTYRVVSVLTVLHQDWLNGKEYKCKVSNKALPAPIEKTISKAKGQPREPQVYTLPPSREEMTKNQVSLTCLVKGFYPSDIAVEWESNGQPENNYKTTPPVLDSDGSFFLYSKLTVDKSRWQQGNVFSCSVMHEALHNHYTQKSLSLSPGK
modifications: left off: another chain or arm of the molecule
B2: mAb8-IgG2.5G1-AY-V27 (protein)
constant: B1 constant with C14S, S102C
modifications: left off: another chain or arm of the molecule
B3: mAb7-IgG2.5G1-AY-V27 (protein)
constant: B1 constant with C14S, S102C
modifications: left off: another chain or arm of the molecule
B4: mAb7-IgG2.5 (protein)
constant: ASTKGPSVFPLAPSSRSTSESTAALGCLVKDYFPEPVTVSWNSGALTSGVHTFPAVLQSSGLYSLSSVVTVPSSNFGTQTYTCNVDHKPSNTKVDKTVERKCCVECPPCPAPPVAGPSVFLFPPKPKDTLMISRTPEVTCVVVDVSHEDPEVQFNWYVDGVEVHNAKTKPREEQFNSTFRVVSVLTVVHQDWLNGKEYKCKVSNKGLPAPIEKTISKTKGQPREPQVYTLPPSREEMTKNQVSLTCLVKGFYPSDIAVEWESNGQPENNYKTTPPMLDSDGSFFLYSKLTVDKSRWQQGNVFSCSVMHEALHNHYTQKSLSLSPGK
modifications: left off: another chain or arm of the molecule; small tags and cut ends
B5: mAb6-IgG2.5 (protein)
constant: B4 constant
modifications: left off: another chain or arm of the molecule
B6: mAb13-IgG2.5 (protein)
constant: B4 constant
modifications: left off: another chain or arm of the molecule
B7: mAb5-IgG2.5 (protein)
constant: B4 constant
modifications: left off: another chain or arm of the molecule
B8: mAb8-IgG2.5 (protein)
constant: B4 constant
modifications: left off: another chain or arm of the molecule; small tags and cut ends
B9: mAb4-IgG2.5 (protein)
constant: B4 constant
modifications: left off: another chain or arm of the molecule
B10: IgG2.3G1-AY-V27: IgG2.3G1-AY constant region with S267E (protein)
chain: B1 constant
modifications: Synthetic: IgG2.3G1-AY-V27
notes: IgG2.3G1-AY constant region with S267E
B11: IgG2.3plusTHT: modified IgG2.3 constant region construct (protein)
chain: ASTKGPSVFPLAPCSRSTSESTAALGCLVKDYFPEPVTVSWNSGALTSGVHTFPAVLQSSGLYSLSSVVTVPSSNFGTQTYTCNVDHKPSNTKVDKTVERKSCVETHTCPPCPAPPVAGPSVFLFPPKPKDTLMISRTPEVTCVVVDVSHEDPEVQFNWYVDGVEVHNAKTKPREEQFNSTFRVVSVLTVVHQDWLNGKEYKCKVSNKGLPAPIEKTISKTKGQPREPQVYTLPPSREEMTKNQVSLTCLVKGFYPSDIAVEWESNGQPENNYKTTPPMLDSDGSFFLYSKLTVDKSRWQQGNVFSCSVMHEALHNHYTQKSLSLSPGK
modifications: Synthetic: IgG2.3-plusTHT
notes: modified IgG2.3 constant region construct

Sequence of CD16B-NA2 (FcgRIIIb-NA2) (O75015 17-200 limits assumed): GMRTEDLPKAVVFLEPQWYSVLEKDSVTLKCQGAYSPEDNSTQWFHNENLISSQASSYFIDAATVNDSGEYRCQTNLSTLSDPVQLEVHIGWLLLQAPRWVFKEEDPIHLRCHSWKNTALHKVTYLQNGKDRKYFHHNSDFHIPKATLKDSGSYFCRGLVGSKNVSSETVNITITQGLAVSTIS
Sequence of CD16a-V158 (FcgRIIIa-V158) (P08637 17-208 F176V limits assumed): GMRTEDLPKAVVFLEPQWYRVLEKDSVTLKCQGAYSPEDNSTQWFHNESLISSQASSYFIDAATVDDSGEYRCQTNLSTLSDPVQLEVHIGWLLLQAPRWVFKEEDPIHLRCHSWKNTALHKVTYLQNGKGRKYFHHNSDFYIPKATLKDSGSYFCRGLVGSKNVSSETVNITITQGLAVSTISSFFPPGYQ

For the first assay, the target named is CD64 (FcgRI) (Homo sapiens, UniProt P12314). The assay can be described thus: SPR binding of 1.0 μM antibody to anti-his Fab captured FcgR-his: CD64.
Sequence of CD64 (FcgRI) (P12314 16-374): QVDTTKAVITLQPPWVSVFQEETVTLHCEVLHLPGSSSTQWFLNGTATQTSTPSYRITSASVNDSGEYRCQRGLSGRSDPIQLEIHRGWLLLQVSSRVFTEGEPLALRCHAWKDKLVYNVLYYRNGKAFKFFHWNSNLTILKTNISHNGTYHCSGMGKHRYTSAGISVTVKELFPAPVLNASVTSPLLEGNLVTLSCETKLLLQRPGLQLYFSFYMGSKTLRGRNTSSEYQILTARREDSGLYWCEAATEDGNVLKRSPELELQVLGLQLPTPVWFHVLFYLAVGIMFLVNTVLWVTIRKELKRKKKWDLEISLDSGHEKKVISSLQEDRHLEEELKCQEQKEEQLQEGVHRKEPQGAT
Conditions: not given
Here is the method: (§1) The binding of antibodies to Fc gamma receptors (FcγRs or FcgRs) was studied using biosensor technologies including Biacore surface plasmon resonance (SPR) and Fortebio Biolayer Interferometry (BLI). SPR studies were performed on a Biacore T100 instrument (GE Healthcare) at 25° C. The Fab fragment from a murine anti-6×His antibody was immobilized on a CM5 sensor chip using EDC/NHS to a density of ˜3000 RU. Various his-tagged FcgRs (7 ug/ml) were captured via the C-terminal his-tag using a contact time of 30 s at 10 ul/min, and the binding of 1.0 μM antibody was evaluated in a running buffer of 10 mM NaPO4, 130 mM NaCl, 0.05% p20 (PBS-T) pH 7.1. FcgRs used for these experiments included CD64 (FcgRI), CD32a-H131 (FcgRIIa-H131), CD32a-R131 (FcgRIIa-R131), CD32b (FcgRIIb), CD16a-V158 (FcgRIIIa-V158), CD16b-NA1 (FcgRIIIb-NA1), and CD16B-NA2 (FcgRIIIb-NA2). BLI experiments were performed on a Fortebio Octet RED instrument (Pall, Fortebio) at 25° C. in 10 mM NaPO4, 130 mM NaCl, 0.05% p20 (PBS-T) pH 7.1. Antibodies were captured out of undiluted expression supernatants on protein A coated sensors, followed by the binding of 1 μM hCD32a-H131, hCD32a-R131, hCD32b, hCD16a-V158, or 0.1 μM hCD64 analytes.
Background: SPR reads the build-up and loss of mass on a sensor chip optically.
For the molecule B1, the “% Rmax, binding to hCD64” value came out at 84%.
Still for that read-out and setting: the figure for B2 is 77%.
Consider B3, for which the “% Rmax, binding to hCD64” value came out at 81%.
The same measure, in the same setting: the figure for B4 is 4%.
Take B5: the “% Rmax, binding to hCD64” value is listed as 3%.
Same read-out and setting: the figure for B6 is −2%; for B7 it is 6%.
As to B8, the “% Rmax, binding to hCD64” value is 3%.
B9: the “% Rmax, binding to hCD64” value is on record as 2%.

The target of another assay is T1, CD32a-H131 (FcgRIIa-H131). The assay can be described thus: SPR binding to FcgR-his: CD32a-H131. The following applies: 1 μM antibody, anti-his Fab captured FcgR-his. Here is the method:
as §1
Take B1: the “% Rmax, binding to hCD32a-H131” value is listed as 68%.
For B2, the “% Rmax, binding to hCD32a-H131” value is recorded as 76%.
On the same count and under the same terms, the figure for B3 is 74%; for B4 it is 72%; for B5 it is 75%.
Same read-out and setting: the figure for B6 is 39%; for B7 it is 89%; for B8 it is 59%.
The same measure, in the same setting: the figure for B9 is 46%.

In the next assay the target is T2, CD32a-R131 (FcgRIIa-R131). Kind of assay: SPR binding to FcgR-his: CD32a-R131. The following applies: 1 μM antibody, anti-his Fab captured FcgR-his. The protocol:
as §1
As to B1, the “% Rmax, binding to hCD32a-R131” value was 92%.
On the same count and under the same terms, the figure for B2 is 79%; for B3 it is 89%; for B4 it is 19%.
Still for that read-out and setting: to B5 belongs 17%; to B6, 4%.
For the molecule B7, the “% Rmax, binding to hCD32a-R131” value is recorded as 26%.
Turning to B8, the “% Rmax, binding to hCD32a-R131” value is listed as 14%.
In the case of B9, the “% Rmax, binding to hCD32a-R131” value came out at 8%.

In another assay the target is T3, CD32b (FcgRIIb). The assay can be described thus: SPR binding to FcgR-his: CD32b. The following applies: 1 μM antibody, anti-his Fab captured FcgR-his. Here is the method:
as §1
On to B1, for which the “% Rmax, binding to hCD32b” value is 76%.
On to B2, for which the “% Rmax, binding to hCD32b” value is on record as 77%.
In the case of B3, the “% Rmax, binding to hCD32b” value worked out at 84%.
The same measure, in the same setting: the figure for B4 is 2%.
On the same count and under the same terms, the figure for B5 is 4%; for B6 it is −2%.
Still for that read-out and setting: to B7 belongs 5%; to B8, 3%; to B9, 1%.

Another assay has as its target CD16a-V158 (FcgRIIIa-V158) (Homo sapiens, UniProt P08637, F176V). The assay can be described thus: SPR binding to FcgR-his: CD16a-V158. To be noted: 1 μM antibody, anti-his Fab captured FcgR-his. The protocol: as §1
Consider B1, for which the “% Rmax, binding to hCD16a-V158” value is reported as 26%.
Consider B2, for which the “% Rmax, binding to hCD16a-V158” value turned out to be 33%.
Still for that read-out and setting: the figure for B3 is 32%.
Consider B4, for which the “% Rmax, binding to hCD16a-V158” value is given as 2%.
As to B5, the “% Rmax, binding to hCD16a-V158” value stood at 2%.
Still for that read-out and setting: to B6 belongs 0%; to B7, 4%.
Still for that read-out and setting: the figure for B8 is 2%; for B9 it is 1%.

Another assay concerns the target CD16B-NA2 (FcgRIIIb-NA2) (Homo sapiens, UniProt O75015). The assay can be described thus: SPR binding to FcgR-his: CD16B-NA2. The following applies: 1 μM antibody, anti-his Fab captured FcgR-his. Here is the method:
as §1
Take B1: the “% Rmax, binding to hCD16B-NA2” value amounted to 7%.
Regarding B2, the “% Rmax, binding to hCD16B-NA2” value amounted to 10%.
On the same count and under the same terms, the figure for B3 is 9%; for B4 it is 0%.
Same read-out and setting: the figure for B5 is 0%; for B6 it is −2%; for B7 it is 1%.
Still for that read-out and setting: the figure for B8 is 0%.
B9: the “% Rmax, binding to hCD16B-NA2” value amounted to 0%.

The test system of another assay is human FcγRs. The assay can be described thus: SPR binding profile to human FcγRs (panel).
Conditions: not given
The protocol:
Binding of the constructs to human FcγRs was measured via SPR. hCD64 and hCD32a-H131 binding data for IgG1.1 and IgG2 molecules were consistent with expected values for the different Fcs. IgG1.1f is the most inert Fc.
as §1
This engineering strategy was further explored by producing other antibodies formatted with IgG2.3G1-AY, IgG2.3G1-AY-S267E (IgG2.3G1-AY-V27), as well as IgG2-B-form variants (IgG2.5G1-AY and IgG2.5G1-AY-V27), and other hybrid antibodies containing different combinations of IgG1 and IgG2 constant domains, and testing the binding of these antibodies to anti-his Fab captured his-tagged FcgRs using Biacore SPR technology.
Consider B10, for which the “FcgR binding properties by SPR (in words)” value was “comparable FcgR binding properties to IgG1f and IgG1f-S267E, respectively”.
Take B11: the “FcgR binding properties by SPR (in words)” value is listed as “unable to retain IgG1f-like FcgR binding properties”.
